Where two headings read alike, the source gives them in different places.
How the values were obtained:
[1] = target: ATRIP peptide (Homo sapiens) (UniProt Q8WXE1); settings: cited from earlier work
[2] = target: TbRPA complex: 6xHis-RPA1;TbRPA2;TbRPA3 (Trypanosoma brucei;Trypanosoma brucei;Trypanosoma brucei) (UniProt Q384B5); assay: MST; settings: 20 mM Tris pH 7.5, 10 mM NaCl, 10 mM MgCl2, 2 mM DTT, 10% glycerol, 0.1 mg/ml BSA, 15 min, room temperature, EMSA 2 nM probe (gel at 4 C), MST 10 nM probe
[3] = target: T1, TbRPA1 DBD-AB (Trypanosoma brucei) (UniProt Q384B5); assay: MST; settings: 20 mM Tris pH 7.5, 10 mM NaCl, 10 mM MgCl2, 2 mM DTT, 10% glycerol, 0.1 mg/ml BSA, 15 min, room temperature; EMSA 2 nM probe (gel at 4 C), MST 10 nM probe
T1 sequence: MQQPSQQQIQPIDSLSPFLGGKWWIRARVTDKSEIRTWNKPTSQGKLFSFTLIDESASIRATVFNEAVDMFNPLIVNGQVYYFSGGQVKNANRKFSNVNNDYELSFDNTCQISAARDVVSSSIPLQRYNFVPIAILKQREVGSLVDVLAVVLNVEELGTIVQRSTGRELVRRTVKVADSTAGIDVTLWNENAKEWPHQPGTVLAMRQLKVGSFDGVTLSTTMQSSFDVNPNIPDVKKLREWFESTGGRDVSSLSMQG

[4] = target: ATRIP peptide (Homo sapiens) (UniProt Q8WXE1); settings: cited from earlier work; remark: listed apart in the source

Sequence of ATRIP peptide (Homo sapiens) (Q8WXE1 whole entry): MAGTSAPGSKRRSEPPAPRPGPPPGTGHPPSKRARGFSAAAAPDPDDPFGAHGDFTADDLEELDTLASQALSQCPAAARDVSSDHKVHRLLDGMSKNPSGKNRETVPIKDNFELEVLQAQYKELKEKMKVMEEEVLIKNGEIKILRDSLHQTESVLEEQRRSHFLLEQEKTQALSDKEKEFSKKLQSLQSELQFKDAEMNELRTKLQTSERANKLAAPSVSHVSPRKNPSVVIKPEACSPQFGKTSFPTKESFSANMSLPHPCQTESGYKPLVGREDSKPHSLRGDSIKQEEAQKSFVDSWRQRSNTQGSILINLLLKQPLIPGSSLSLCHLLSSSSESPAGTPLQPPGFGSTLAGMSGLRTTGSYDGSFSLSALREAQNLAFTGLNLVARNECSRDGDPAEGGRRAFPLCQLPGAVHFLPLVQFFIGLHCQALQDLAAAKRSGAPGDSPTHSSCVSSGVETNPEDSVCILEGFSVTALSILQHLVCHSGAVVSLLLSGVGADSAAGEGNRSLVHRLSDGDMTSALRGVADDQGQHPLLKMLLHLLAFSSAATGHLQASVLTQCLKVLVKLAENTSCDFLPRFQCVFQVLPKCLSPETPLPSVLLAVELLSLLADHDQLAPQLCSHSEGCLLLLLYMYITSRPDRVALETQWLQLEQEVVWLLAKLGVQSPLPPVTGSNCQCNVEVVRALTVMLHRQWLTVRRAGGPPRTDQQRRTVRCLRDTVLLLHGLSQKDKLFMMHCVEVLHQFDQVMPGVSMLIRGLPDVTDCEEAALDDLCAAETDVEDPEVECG
Sequence of RPA1 DBD-F DBD-F (P27694 1-120): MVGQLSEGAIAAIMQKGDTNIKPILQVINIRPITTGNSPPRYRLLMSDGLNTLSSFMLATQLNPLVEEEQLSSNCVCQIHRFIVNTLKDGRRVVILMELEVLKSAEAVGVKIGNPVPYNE
Sequence of RPA1 DBD-AB DBD-AB (P27694 181-422): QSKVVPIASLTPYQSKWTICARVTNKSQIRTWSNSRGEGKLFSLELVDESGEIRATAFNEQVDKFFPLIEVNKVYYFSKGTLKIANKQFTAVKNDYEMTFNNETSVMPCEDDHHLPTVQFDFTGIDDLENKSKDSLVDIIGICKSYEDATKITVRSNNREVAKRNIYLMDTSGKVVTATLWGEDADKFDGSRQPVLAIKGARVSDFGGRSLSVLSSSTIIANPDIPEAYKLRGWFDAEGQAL

Question: Which Kd [1] does the source give for “RPA1 DBD-AB DBD-AB (from UniProt P27694)” here?
Answer: 12000 nM

Question: With TTTTTTTTTTTTTTTTTTTT [dT20] as the substance, how does the Kd ([2]; 17.2 nM in peer review file) read?
Answer: 17 nM

Question: With TTTTTTTTTTTT [dT12] as the substance, how does the Kd [3] read?
Answer: 60.5 nM

Question: With RPA1 DBD-F DBD-F (from UniProt P27694) as the substance, how does the Kd [4] read?
Answer: 7400 nM

Question: For TTTTTTTTTTTTTTTTTTTTTTTTTTTTTTTT [dT32], which Kd [2] is on record?
Answer: 13.2 nM

Question: And the Kd ([2]; second measurement, with S105T / length series)?
Answer: 15.5 nM
